Measurements published in patent publication US20110311517A1, “Antibodies and methods for treating estrogen receptor-associated diseases” (SHENOGEN PHARMA GROUP, LTD., priority 2009, published 2011).
Marks after values point to notes of the source that are not given here.

Key:
ERα36 = molecular target: T1, ERα36 (Homo sapiens, UniProt P03372); assay: ELISA of re-natured ScFv binding to ERα36
T1 construct: made in house; host or cells: chemical synthesis (no expression host)
T1 sequence (P03372 284-310 isoform P03372-4 limits assumed): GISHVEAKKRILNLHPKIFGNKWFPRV
Protocol: Streptavidin-coated 96-well plates were washed twice with PBS. Biotinylated ERα36 (final concentration of 20 μg/ml) was added into each testing well. The plates were incubated for 2 h at room temperature and washed three times with PBST. Re-natured ScFv samples (100 μl, S14A1r1, S24A2r2, S33A2r1, S41A3r3, S53A1r1, S66A1r1 and S72A2r1) were added into the testing wells respectively. Each ScFv was diluted five times in five gradients, and two parallel wells were loaded with each ScFv at each gradient. The plates were incubated at 37° C. for 1 h. The plates were washed three times with PBST, followed by addition of 100 μl anti-His-6 mouse monoclonal antibody (1:2000 dilution) per well and 1 h incubation at 37° C. The plates were washed three times with PBST, followed by addition of 100 μl goat anti-mouse-HRP (1:2500 dilution) per well and 1 h incubation at 37° C. The plates were washed six times with PBST, followed by addition of 100 μl OPD to develop under the protection from light. The reactions were terminated by adding 50 μl 2M H2SO4 to each well, and data were collected by microplate reader at 490 nm.
One positive control and three negative controls were performed in parallel. The positive control used rabbit anti-ER multi-clonal antibody serum in replacement of the ScFv re-natured sample and goat-anti-rabbit-HRP in replacement of goat-anti-mouse HRP.

[1] = test system: Human breast tumor BCAP-37; assay: Tumor growth inhibition in BCAP-37 tumor-bearing nude mice; type: in vivo, BALB/c-nu nude mice
Source text: 49 female BALB/c-nu nude mice (provided by department of laboratory animal science, Peking University Health Science Center) were used in the studies.
(§1) The tested animals were grouped into 7 groups with 7 nude mice in each group. The seven groups are the negative control group treated with human IgG antibody (purchased from Beijing Biosynthesis Biotechnology Co. Ltd.), the positive control group treated with herceptin (provided by Beijing Shenogen pharma group), the multi-clonal antibody test group treated with rabbit anti-ERα36 multi-clonal antibody (provided by Wang, Zhao-Yi group, Creighton University), and the monoclonal antibody test groups treated with human anti-ERα36 monoclonal ScFv1, ScFv3, ScFv4 and ScFv7 respectively.
(§2) The test groups were administered with the same dose of rabbit anti-ERα36 multi-clonal antibody, human anti-ERα36 monoclonal ScFv1, ScFv3, ScFv4 and ScFv7 respectively (5 mg/kg, 100 μg/dose). The positive control group was administered with 5 mg/kg herceptin (100 μg/dose,), and the negative control group was administered with 5 mg/kg IgG antibody (100 μg/dose).
(§3) Human breast tumor BCAP-37 (estrogen receptor positive, provided by department of pharmacology, Institute of Materia Medica, Chinese Academy of Medical Sciences) was implanted subcutaneously into the armpit of the right forelimb of each tested nude mouse. Diethylstilbestrol was administered by gavage with the dose of 7 μg/day for 9 consecutive days after the implantation. On day 10, the mice were grouped into 7 groups and administered with the corresponding drug via intravenous injection, at a dosing interval of 3-4 days, for 6 consecutive doses. Every 3-4 days, the tumor-bearing mice were weighed and their tumor sizes were measured. Parameters were calculated using the following equations:
Volume of Tumor in animals of each group (VT): Vt=½×a×b^2, (Equation 1),
wherein a and b represent the length and width of the tumor, respectively;
wherein V0 is the volume of tumor before drug administration at the time of grouping, Vt is the volume of tumor at each measurement; the calculation method of V0 is the same as that of Vt;
wherein TRTV is the arithmetic mean of RTV of the test groups, and CRTV is the arithmetic mean of RTV of the negative control group.
The tumor bearing mice in each group were terminated after 21 days of observations and drug administrations. The tumors were then excised from the animals, photographed and weighed on 1/10000 analytical balance. The average tumor weights and tumor growth inhibition rates were calculated:
All experimental data were shown in mean±standard deviation. Groups were compared using statistical t test.

[2] = Body weight and mortality of tumor-bearing nude mice during drug administration; type: in vivo, BALB/c-nu nude mice; conditions: mean ± SD
Source text: as §1, §2
as §3, with “equations: […]” for “equations:”

[3] = ScFv concentration 170.00 μg/ml
[4] = BCAP-37 nude mice, 5 mg/kg i.v. every 3-4 days, 6 doses, mean ± SD
[5] = BCAP-37 nude mice, 5 mg/kg i.v. every 3-4 days, Vt relative to V0, mean ± SD
[6] = 5 mg/kg i.v. every 3-4 days, 6 doses
[7] = ScFv concentration 235.00 μg/ml

B1: ScFv3: fully human anti-ERα36 single chain antibody, SEQ ID NO: 7 (protein)
scFv: QSVLTQPASVSGSPGQSITISCTGTSSDVGGYNYVSWYQQHPGKAPKLMIYDVSKRPSGVSNRFSGSKSGNTASLTISGLQAEDEADYYCSSYTSSSTLVFGGGTKLTVLGSGGSTITSYNVYYTKLSSSGTEVQLVQSGGGVAQPGRSLRLSCAASGITFNSYGMHWVRQAPGKGLEWVAVMPYDGSNEYYADSVKGRFTISRDNSKNTLYLQMNSLRAEDTAVYYCAKGSGMVQLWADAFDVWGQGTMVTVSSAS
modifications: scFv3
For B1, the “OD490 Well1” value (ERα36; ScFv concentration 1.44 μg/ml) was 0.242, the “OD490 Well2” value (ERα36; ScFv concentration 1.44 μg/ml) was 0.037 and the “OD490 Well1” value (ERα36; ScFv concentration 7.20 μg/ml) was 0.290. The “OD490 Well2” value (ERα36; ScFv concentration 7.20 μg/ml) was 0.229, the “OD490 Well1” value (ERα36; ScFv concentration 36.00 μg/ml) was 0.448 and the “OD490 Well2” value (ERα36; ScFv concentration 36.00 μg/ml) was 0.344. For the same molecule, the “OD490 Well1” value (ERα36; [3]) was 1.459, the “OD490 Well2” value (ERα36; [3]) was 1.349 and the “Tumor volumes, Day 4 after drug administration” value [1, 4] was 171.91 ± 73.68^b mm^3. For the same molecule, the “Tumor volumes, Day 7 after drug administration” value [1, 4] was 302.93 ± 100.01^b mm^3, the “Tumor volumes, Day 11 after drug administration” value [1, 4] was 1442.70 ± 406.32^b mm^3 and the “Tumor volumes, Day 14 after drug administration” value [1, 4] was 1993.02 ± 405.84^b mm^3. For the same molecule, the “Tumor volumes, Day 18 after drug administration” value [1, 4] was 2859.65 ± 427.16^b mm^3, the “Tumor volumes, Day 21 after drug administration” value [1, 4] was 3324.97 ± 460.89^b mm^3 and the “relative tumor volume (RTV), Day 4” value [1, 5] was 3.61 ± 2.03^b. The “relative tumor volume (RTV), Day 7” value [1, 5] was 6.31 ± 2.88^b, the “relative tumor volume (RTV), Day 11” value [1, 5] was 30.44 ± 14.49^b and the “relative tumor volume (RTV), Day 14” value [1, 5] was 41.87 ± 16.82^b. For the same molecule, the “relative tumor volume (RTV), Day 18” value [1, 5] was 59.61 ± 20.46^b, the “relative tumor volume (RTV), Day 21” value [1, 5] was 69.18 ± 22.85^b and the “inhibition of tumor growth in tumor-bearing mice (in words)” value ([1]; BCAP-37 nude mice, 5 mg/kg i.v., 6 doses) was “strongest inhibitory activities”. The “Tumor volumes, Before drug administration” value ([1]; baseline, BCAP-37 nude mice, 5 mg/kg i.v. every 3-4 days, 6 doses, mean ± SD) was 50.51 ± 10.12 mm^3, the “tumor sizes at pathological examination (in words)” value ([1]; excised tumors after 21 days) was “the smallest among the mono-clonal antibody groups” and the “Tumor weight” value ([1]; excised tumors after 21 days, BCAP-37 nude mice, 5 mg/kg i.v., 6 doses, mean ± SD) was 2.738 ± 0.344 g. For the same molecule, the “Tumor growth inhibition rate (%)” value ([1]; from average tumor weights after 21 days vs negative control, 5 mg/kg i.v., 6 doses) was 59.76%, the “Body weights of tumor-bearing nude mice, Day 4 after drug administration” value [2, 6] was 20.28 ± 0.54 and the “Body weights of tumor-bearing nude mice, Day 7 after drug administration” value [2, 6] was 20.75 ± 0.31. For the same molecule, the “Body weights of tumor-bearing nude mice, Day 11 after drug administration” value [2, 6] was 21.24 ± 0.55, the “Body weights of tumor-bearing nude mice, Day 14 after drug administration” value [2, 6] was 22.04 ± 0.59 and the “Body weights of tumor-bearing nude mice, Day 18 after drug administration” value [2, 6] was 23.38 ± 0.46. The “Body weights of tumor-bearing nude mice, Day 21 after drug administration” value [2, 6] was 23.62 ± 0.36, the “body weight when grouped” value ([2]; baseline at the time of grouping) was 19.94 ± 0.81 and the “Body weights of tumor-bearing nude mice, Before drug administration” value ([2]; baseline, 5 mg/kg i.v. every 3-4 days, 6 doses) was 19.94 ± 0.81.

B2: ScFv6: fully human anti-ERα36 single chain antibody, SEQ ID NO: 13 (protein)
scFv: EIVMTQSPGTLSLSPGERATLSCRASQSVDSNFLAWYQQRPGQAPRLLIYGVSSSATGIPDRFSGSGSGTDFTLSIDRLEPEDFAVYYCQQYGSSPTFGGGTKLEIKRSGGSTITSYNVYYTKLSSSGTQVQLQESGGGLVQPGRSLRLSCAASGFTFDDYAMHWVRQAPGKGLEWVSGISWNSGSIGYADSVKGRFTISRDNAKNSLYLQMNSLRAEDTAVYYCARSGDYGAFDIWGQGTMVTVSSAS
modifications: scFv6
In the case of B2, the “OD490 Well1” value (ERα36; ScFv concentration 0.38 μg/ml) is reported as 0.127, the “OD490 Well2” value (ERα36; ScFv concentration 0.38 μg/ml) is reported as 0.129 and the “OD490 Well1” value (ERα36; ScFv concentration 1.90 μg/ml) is reported as 0.161. The “OD490 Well2” value (ERα36; ScFv concentration 1.90 μg/ml) was 0.162, the “OD490 Well1” value (ERα36; ScFv concentration 9.40 μg/ml) was 0.210 and the “OD490 Well2” value (ERα36; ScFv concentration 9.40 μg/ml) was 0.209. The “OD490 Well1” value (ERα36; ScFv concentration 47.00 μg/ml) was 0.327, the “OD490 Well2” value (ERα36; ScFv concentration 47.00 μg/ml) was 0.326 and the “OD490 Well1” value (ERα36; [7]) was 0.677. The “OD490 Well2” value (ERα36; [7]) was 0.664.

B3: ScFv2: fully human anti-ERα36 single chain antibody, SEQ ID NO: 5 (protein)
scFv: QSALTQPASVSGSPGQSITISCTGTSSDVGGYNYVSWYQQHPGKAPKLMIYDVSKRPSGVSNRFSGSKSGNTASLTISGLQAEDEADYYCSSYTSSSTLVFGGGTKLTVLGSGGSTITSYNVYYTKLSSSGTQVQLLESGAEVKKPGASVKVSCKASGYTFTAYYMHWVRQAPGQGLEWMAMIDPSGSITSYAQKFQGRVTMSRDTSTSTLYMELSSLRSDDTAVYYCARDLKEGFSVPGAFDIWGQGTMVTVSSAS
modifications: scFv2
In the case of B3, the “OD490 Well1” value (ERα36; ScFv concentration 1.40 μg/ml) is reported as 0.095, the “OD490 Well2” value (ERα36; ScFv concentration 1.40 μg/ml) is reported as 0.096 and the “OD490 Well1” value (ERα36; ScFv concentration 7.00 μg/ml) is reported as 0.138. For the same molecule, the “OD490 Well2” value (ERα36; ScFv concentration 7.00 μg/ml) was 0.121, the “OD490 Well1” value (ERα36; ScFv concentration 35.00 μg/ml) was 0.343 and the “OD490 Well2” value (ERα36; ScFv concentration 35.00 μg/ml) was 0.359.
